The record followed here is patent US8679782B2, “Production of triacylglycerides, fatty acids, and their derivatives” (Massachusetts Institute of Technology, priority 2009, dated 2014).

Data set [1] has as its system purified lipid bodies. Briefly: Lipid aggregation assay with purified lipid bodies. Type of data set: biochemical, R. opacus PD630. Here is the method: Lipid bodies were purified from R. opacus PD630 as previously described (27) with minor modifications. Briefly, R. opacus was grown for 96 h in minimal media supplemented with 4% glucose and 0.15% ammonium sulphate. Cultures were harvested via centrifugation at 6000×g for 20 minutes. Cell pellets were resuspended in 25 ml of PBS and lysed by passing through a French pressure cell set at 18,000 psi 5 times. An equal volume of 80% glycerol was added to lysates followed by centrifugation at 6000×g for 3 h at 4° C. Following centrifugation, the upper layer (lipid body fraction) was removed to 40 ml of 40% glycerol (tube #1) and the pellet (cell debris) was resuspended in 40 ml of 40% glycerol (tube #2) followed by a second centrifugation at 6000×g for 3 h. The lipid body layer (upper layer) from tube #1 was removed to 20 ml PBS and the cell debris (pellet) from tube #2 was resuspended in 20 ml of PBS followed by centrifugation at 7500×g for 30 min. All fractions were then resuspended in 5 ml of PBS and used immediately. […] Wells were imaged using a Canon Powershot SD1200 IS digital camera (Canon, Lake Success, N.Y.). To obtain a more quantitative measure of aggregation, 2 μl of the supernatant was removed from each well and the optical density at 600 nm was determined using a Nano-Drop spectrophotometer (Thermo Scientific, Wilmington, Del.).

The test system of another data set is yeast. The experiment in a line: Yeast agglutination assay. It is filed as cell-based. The following applies: FIG. 85.
Data set [2] deals with purified lipid bodies. Briefly: Western blotting of lipid bodies from the aggregation assay. Type of data set: binding, R. opacus PD630. The note with it: supernatant and washed lipid body fractions. A general note: A western blot detects proteins with antibodies after separation by electrophoresis.
The nature of data set [3]: Heparin-sepharose binding. Here is the method:
Purified TadA was diluted to a final concentration of 500 μg/ml in dialysis buffer. 100 mg of Heparin-sepharose CL-6B (GE Healthcare, Piscataway, N.J.) was resuspended in 5 ml of Tris buffer (20 mM Tris (pH7.0), 100 mM NaCl) and allowed to rehydrate with gentle agitation for 1 h. Following rehydration, the resin was pelleted via centrifugation at 1000×g for 2 minutes and subsequently washed 3 times in the same buffer. The resin was resuspended in 1 ml of Tris buffer to which 500 μg of purified TadA was added. The Sepharose-TadA slurry was incubated at 4° C. for 1 h with gentle agitation. Following incubation, the resin was pelleted, an aliquot of the supernatant was removed (flow-through fraction), the Sepharose was washed 5 times with Tris buffer and an aliquot of the supernatant from the final wash was removed (wash fraction). The remaining heparin-sepharose was resuspended in 1 ml of Tris buffer from which an aliquot was removed (beads fraction). 5× SDS-PAGE loading buffer was added to each aliquot, which were then boiled for 5 min. Samples were resolved using 10% acrylamide Ready gel Tris-HCl SDS-PAGE gels (Bio-Rad, Hercules, Calif.) and stained using colloidal coomassie as previously described (18, 31).

Data set [4] is described as follows: NAD(P)H-dependent glyceraldehyde 3-phosphate dehydrogenase (ND-G3PDH) activity assay. Type of data set: biochemical. The note with it: purified histidine-tagged protein vs empty vector fractions; G3P and NAD(P)+. How it is done: NP-G3PDH activity was assayed as previously described with minor modifications (9). Briefly, reactions contained 1 mM NAD(P)+, 1 mM glyceraldehyde 3-phosphate and either […] of purified TadD or […] of crude bacterial lysate in a final volume of 1 ml. Reactions were incubated at 37° C. for one hour. Following incubation, the optical density of the reactions was measured at 340 nm. R. opacus cultures were grown in either lysogeny broth or MR medium supplemented with 4% glucose and 0.15% ammonium sulphate for 24 hours prior to mechanical disruption using a French pressure cell. Cellular debris was pelted by centrifugation at 20,000×g for 30 minutes.
Additionally, we fractionated supernatant from E. coli containing the parental plasmid which was used as an empty vector control. Fractions containing the histidine tagged TadD protein (and the corresponding fractions from the empty vector fractionation) were then used in ND-G3PDH activity assays.

B1: TadA: R. opacus PD630 heparin-binding hemagglutinin homolog, SEQ ID NO:11 (protein, listed as Rhodoccus opacus)
chain: MTDQKTIDSVKTSLYAAVGAGDVVVQAVADVVAQVRSRAESTQGDVEERVGGAKERIAGLQEEVTEGVENLRDRLAGLPSELPEELAELREKFTADELRKVAEAYLKVASDLYTSLAERGEDTVERIRKQPVVEEGIGRAETAFGDAVELTEEALGTVARQTRAVGEQAAKLAGRASGRISDTAEGLGEAIADAGDEAALKVLDLGDQAEEASKDAADRVAATAADVQAQADKAAQAKHAAPAKKAAPAKAAATPAPAPAKKVAAPAKKAAPAKKA
Regarding B1, the “optical density at 600 nm of the supernatants” value with purified lipid bodies [1] (2 μl supernatant from each well) was “decreases as protein concentration increases”. Besides, the “lipid body aggregation and flocculation (96 well dish)” value in the data set with purified lipid bodies [1] (increasing protein concentrations, 12 h room temperature) is “capable of inducing lipid body aggregation and subsequent flocculation in a dose-dependent manner”. Further, in the data set with purified lipid bodies [1] (samples from the aggregation assay), the “size of lipid body aggregates (Nile Red fluorescent microscopy)” value is recorded as “aggregated into very large clumps”. Moreover, the yeast agglutination result in the data set on yeast is “yeast agglutination mediated by TadA”. Moreover, the “association with lipid bodies (anti-penta-histidine Western blot)” value in the data set on purified lipid bodies [2] was “detected in both the supernatant as well as the lipid body fractions”. Further, in data set [3] (control with pure heparin), the “binding to heparin-sepharose in the presence of pure heparin” value is given as “completely abrogated any binding”. Besides, the “binding to heparin-sepharose (SDS-PAGE of flow through, wash, beads)” value in data set [3] (purified hexa-histidine protein) is reported as “the majority of the protein was found associated with the heparin-sepharose”.

B2: TadD: R. opacus PD630 non-phosphorylating NAD(P)+-dependent glyceraldehyde 3-phosphate dehydrogenase homolog, SEQ ID NO:4 (protein, listed as Rhodoccus opacus)
chain: MSIAADSLSNITPPGLTIDGEITTTAAVIPVINPATESAFIEVPDAGVEQLDAAVSAARRAAKHWATHDLPFRQGIVLRLVDHVRANIDELARLVTLEQGKPLAKAAGEIESGLRGLERYASWDIPVEVIRDNDDELIEVHRAPVGVVGGITAWNYPLLLALWKIGPALITGNPIIVKPSPLTPVATLRLGELAQQILPPGVLQVLSGGDDLGRAMTAHTGIDKITFTGSERAGKSIMAGAGATLKRLTLELGGNDPGIVLDDVDVASIAADLYWGALSNCGQVCAGLKRLYVPQHLAPAIEEALAEVAKGVKVGNGLDDGVDMGPVQNAAQFTKVRGYVDDAANRGADVYFRGEVPEGPGYFHPVTLVRGVDDSVPLVREEQFGPVLPILTYTDIDDVIARANDSELALGASVWSSDEQRATEVAERVEAGTVWVNQHPMLSSDVPFGGVKQSGLGVEQSIHGVLEYTNYRVLRVKR
Take B2: the “NAD(P)H formation (increase in optical density at 340 nm)” value in data set [4] is listed as “significantly more NAD(P)H”.
